Usually EC50 stands for the concentration needed to bring the measured effect to its halfway point.

The text below walks through data of US20250101098A1 (R P SCHERER TECHNOLOGIES, published 2025).

For assay [1], the target named is T1, human nectin-4 protein expressed on the surface of cells (human, UniProt Q96NY8 32-510).
T1 sequence: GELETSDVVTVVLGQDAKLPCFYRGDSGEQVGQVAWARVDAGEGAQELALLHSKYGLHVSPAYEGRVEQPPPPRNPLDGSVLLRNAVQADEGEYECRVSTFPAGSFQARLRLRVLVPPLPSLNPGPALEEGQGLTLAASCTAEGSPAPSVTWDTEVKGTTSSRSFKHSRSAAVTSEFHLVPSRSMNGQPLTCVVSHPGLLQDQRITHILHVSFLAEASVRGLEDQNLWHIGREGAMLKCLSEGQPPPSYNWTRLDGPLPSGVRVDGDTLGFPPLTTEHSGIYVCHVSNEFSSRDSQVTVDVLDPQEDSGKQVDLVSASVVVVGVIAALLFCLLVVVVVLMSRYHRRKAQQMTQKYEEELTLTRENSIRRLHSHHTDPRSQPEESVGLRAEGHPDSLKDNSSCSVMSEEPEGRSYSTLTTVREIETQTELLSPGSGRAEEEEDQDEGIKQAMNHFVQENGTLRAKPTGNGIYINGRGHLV
The assay is described as follows: cell-based or functional assay.

The target in assay [2] is T2, recombinant human Nectin-4-His protein (human, UniProt Q96NY8 32-349).
T2 construct: Rescreening antigen and bought ELISA antigen are treated as one molecule; also called human Nectin-4-His tagged; Ag1; not shown: His tag
T2 sequence: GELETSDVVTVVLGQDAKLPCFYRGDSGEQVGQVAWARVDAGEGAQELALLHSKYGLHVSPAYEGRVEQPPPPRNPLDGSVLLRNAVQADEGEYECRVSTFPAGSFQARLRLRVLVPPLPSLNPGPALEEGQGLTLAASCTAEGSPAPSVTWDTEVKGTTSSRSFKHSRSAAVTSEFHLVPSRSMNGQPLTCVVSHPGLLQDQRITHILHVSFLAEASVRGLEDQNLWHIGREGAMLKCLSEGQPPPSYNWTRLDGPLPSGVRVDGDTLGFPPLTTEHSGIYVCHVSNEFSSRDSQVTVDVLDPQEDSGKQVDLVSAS
The experiment in a line: ELISA, coated antigen. In general terms: ELISA stands for enzyme-linked immunosorbent assay.

B1: Nectin-4 5D9 VH4/VL5 (antibody, V domains shown)
VH: QVQLQQSGPGLVKPSETLSLTCTVSGFSLTNYGVHWVRQPPGKGLEWLGVIWSGGSTDYNPSLKSRLTISRDTSKNQVSFKMSSVTAADTAVYYCARSGKWYYFDYWGQGTLVTVSS
VL: DIQMTQSPSSLSASVGDRVTITCRASQSIYSNLAWYQQKPGKAPKLLVYAATNLQSGVPSRFSGSGSGTDFTLTISSLQPEDFATYYCQHFWGTPTFGGGTKVEIK
notes: Humanized; also called 5D9 VH variant 4 / 5D9 VL variant 5; Nectin-4 VH4/VL5
For the molecule B1, in assay [1], the “Cell kill IC50, HekNectin4” value is 0.269 nM; the “Cell kill IC50, MDA-MB468” value is 3.93 nM; the “Cell kill IC50, SKBR3” value was determined as 7.25 nM. In addition, the EC50 in assay [2] stood at 0.195 nM.

B2: Nectin-4 5D9 VH4/VL2 (antibody, V domains shown)
VH: QVQLQQSGPGLVKPSETLSLTCTVSGFSLTNYGVHWVRQPPGKGLEWLGVIWSGGSTDYNPSLKSRLTISRDTSKNQVSFKMSSVTAADTAVYYCARSGKWYYFDYWGQGTLVTVSS
VL: DIQMTQSPSSLSASVGDTVTITCRASQNIYSNLAWYQQKQGKAPKLLVYAATNLADGVPSRFSGSGSGTDFTLKINSLQPEDFATYYCQHFWGTPTFGGGTKVEIK
notes: Humanized; also called 5D9 VH variant 4 / 5D9 VL variant 2
On to B2, for which, in assay [1], the “Cell kill IC50, HekNectin4” value turned out to be 0.29 nM; the “Cell kill IC50, MDA-MB468” value is 3.13 nM; the “Cell kill IC50, SKBR3” value was found to be 4.95 nM. The EC50 in assay [2] stood at 0.236 nM.

B3: Nectin-4 5D9 VH5/VL1 (antibody, V domains shown)
VH: QVQLQESGPGLVKPSETLSLTCTVSGGSLTNYGVHWVRQPPGKGLEWIGVIWSGGSTNYNPSLKSRVTISRDTSKNQVSLKLSSVTAADTAVYYCARSGKWYYFDYWGQGTLVTVSS
VL: DIQMTQSPASLSASVGDTVTITCRASQNIYSNLAWYQQKQGKSPQLLVYAATNLADGVPSRFSGSGSGTQYTLKINSLQSEDFGTYYCQHFWGTPTFGGGTKVEIK
notes: Humanized; also called 5D9 VH variant 5 / 5D9 VL variant 1
As to B3, in assay [1], the “Cell kill IC50, HekNectin4” value was 30.3 nM; the “Cell kill IC50, MDA-MB468” value was 19 nM; the “Cell kill IC50, SKBR3” value stood at 13.3 nM. For the same molecule, the EC50 in assay [2] came out at 33.4 nM.

B4: Nectin-4 5D9 VH3/VL1 (antibody, V domains shown)
VH: QVQLQESGPGLVKPSETLSLTCTVSGGSITNYGVHWIRQPPGKGLEWLGVIWSGGSTDYNPSLKSRVTISVDTSKNQFSLKLSSVTAADTAVYYCARSGKWYYFDYWGQGTLVTVSS
VL: DIQMTQSPASLSASVGDTVTITCRASQNIYSNLAWYQQKQGKSPQLLVYAATNLADGVPSRFSGSGSGTQYTLKINSLQSEDFGTYYCQHFWGTPTFGGGTKVEIK
notes: Humanized; also called 5D9 VH variant 3 / 5D9 VL variant 1
As for B4, in assay [1], the “Cell kill IC50, HekNectin4” value was 73.3 nM; the “Cell kill IC50, MDA-MB468” value is 41.6 nM; the “Cell kill IC50, SKBR3” value was 46.9 nM. Further, in assay [2], the EC50 was more than 20 nM.

B5: Nectin-4 5D9 VH2/VL4 (antibody, V domains shown)
VH: QVQLQESGPGLVKPSETLSLTCTVSGFSITNYGVHWIRQPPGKGLEWLGVIWSGGSTDYNASLVSRVTISRDTSKSQFFLKLNSVQADDTAVYYCARSGKWYYFDYWGQGTTVTVSS
VL: DIQMTQSPSSLSASVGDRVTITCRASENIYSNLAWYQQKPGKAPKLLVYAATNLADGVPSRFSGSGSGTDYTLTISSLQPEDFATYYCQHFWGTPTFGGGTKVEIK
notes: Humanized; also called 5D9 VH variant 2 / 5D9 VL variant 4
Regarding B5, in assay [1], the “Cell kill IC50, HekNectin4” value stood at 17.8 nM; the “Cell kill IC50, MDA-MB468” value was determined as 27 nM; the “Cell kill IC50, SKBR3” value amounted to 18.5 nM. The EC50 in assay [2] was found to be 0.765 nM.

B6: Nectin-4 5D9 VH4/VL1 (antibody, V domains shown)
VH: QVQLQQSGPGLVKPSETLSLTCTVSGFSLTNYGVHWVRQPPGKGLEWLGVIWSGGSTDYNPSLKSRLTISRDTSKNQVSFKMSSVTAADTAVYYCARSGKWYYFDYWGQGTLVTVSS
VL: DIQMTQSPASLSASVGDTVTITCRASQNIYSNLAWYQQKQGKSPQLLVYAATNLADGVPSRFSGSGSGTQYTLKINSLQSEDFGTYYCQHFWGTPTFGGGTKVEIK
notes: Humanized; also called 5D9 VH variant 4 / 5D9 VL variant 1; Nectin-4 VH4/VL1
Take B6: in assay [1], the “Cell kill IC50, HekNectin4” value came out at 0.182 nM; the “Cell kill IC50, MDA-MB468” value is 1.08 nM; the “Cell kill IC50, SKBR3” value amounted to 3.85 nM. The EC50 in assay [2] is 0.212 nM.

B7: Nectin-4 5D9 VH4/VL4 (antibody, V domains shown)
VH: QVQLQQSGPGLVKPSETLSLTCTVSGFSLTNYGVHWVRQPPGKGLEWLGVIWSGGSTDYNPSLKSRLTISRDTSKNQVSFKMSSVTAADTAVYYCARSGKWYYFDYWGQGTLVTVSS
VL: DIQMTQSPSSLSASVGDRVTITCRASENIYSNLAWYQQKPGKAPKLLVYAATNLADGVPSRFSGSGSGTDYTLTISSLQPEDFATYYCQHFWGTPTFGGGTKVEIK
notes: Humanized; also called 5D9 VH variant 4 / 5D9 VL variant 4
With B7, in assay [1], the “Cell kill IC50, HekNectin4” value was 0.102 nM; the “Cell kill IC50, MDA-MB468” value was found to be 3.37 nM; the “Cell kill IC50, SKBR3” value came out at 9.45 nM. In assay [2], the EC50 amounted to 0.232 nM.

B8: Nectin-4 5D9 VH5/VL3 (antibody, V domains shown)
VH: QVQLQESGPGLVKPSETLSLTCTVSGGSLTNYGVHWVRQPPGKGLEWIGVIWSGGSTNYNPSLKSRVTISRDTSKNQVSLKLSSVTAADTAVYYCARSGKWYYFDYWGQGTLVTVSS
VL: DIQMTQSPSSLSASVGDRVTITCRASQSIYSNLAWYQQKPGKAPKLLVYAATNLASGVPSRFSGSGSGTDFTLTISSLQPEDFATYYCQHFWGTPTFGGGTKVEIK
notes: Humanized; also called 5D9 VH variant 5 / 5D9 VL variant 3
Take B8: in assay [1], the “Cell kill IC50, HekNectin4” value worked out at 15.6 nM; the “Cell kill IC50, MDA-MB468” value stood at 16.6 nM; the “Cell kill IC50, SKBR3” value was 9.86 nM. Further, the EC50 in assay [2] worked out at 0.702 nM.

B9: Nectin-4 5D9 VH5/VL5 (antibody, V domains shown)
VH: QVQLQESGPGLVKPSETLSLTCTVSGGSLTNYGVHWVRQPPGKGLEWIGVIWSGGSTNYNPSLKSRVTISRDTSKNQVSLKLSSVTAADTAVYYCARSGKWYYFDYWGQGTLVTVSS
VL: DIQMTQSPSSLSASVGDRVTITCRASQSIYSNLAWYQQKPGKAPKLLVYAATNLQSGVPSRFSGSGSGTDFTLTISSLQPEDFATYYCQHFWGTPTFGGGTKVEIK
notes: Humanized; also called 5D9 VH variant 5 / 5D9 VL variant 5
For the molecule B9, in assay [1], the “Cell kill IC50, HekNectin4” value worked out at 33.5 nM; the “Cell kill IC50, MDA-MB468” value came out at 24 nM; the “Cell kill IC50, SKBR3” value amounted to 17.8 nM. Also, the EC50 in assay [2] turned out to be 56.1 nM.

B10: Nectin-4 5D9 VH5/VL4 (antibody, V domains shown)
VH: QVQLQESGPGLVKPSETLSLTCTVSGGSLTNYGVHWVRQPPGKGLEWIGVIWSGGSTNYNPSLKSRVTISRDTSKNQVSLKLSSVTAADTAVYYCARSGKWYYFDYWGQGTLVTVSS
VL: DIQMTQSPSSLSASVGDRVTITCRASENIYSNLAWYQQKPGKAPKLLVYAATNLADGVPSRFSGSGSGTDYTLTISSLQPEDFATYYCQHFWGTPTFGGGTKVEIK
notes: Humanized; also called 5D9 VH variant 5 / 5D9 VL variant 4
Regarding B10, in assay [1], the “Cell kill IC50, HekNectin4” value was 22.1 nM; the “Cell kill IC50, MDA-MB468” value is 11 nM; the “Cell kill IC50, SKBR3” value is 9.53 nM. Moreover, the EC50 in assay [2] stood at 11.5 nM.

B11: Nectin-4 5D9 VH5/VL2 (antibody, V domains shown)
VH: QVQLQESGPGLVKPSETLSLTCTVSGGSLTNYGVHWVRQPPGKGLEWIGVIWSGGSTNYNPSLKSRVTISRDTSKNQVSLKLSSVTAADTAVYYCARSGKWYYFDYWGQGTLVTVSS
VL: DIQMTQSPSSLSASVGDTVTITCRASQNIYSNLAWYQQKQGKAPKLLVYAATNLADGVPSRFSGSGSGTDFTLKINSLQPEDFATYYCQHFWGTPTFGGGTKVEIK
notes: Humanized; also called 5D9 VH variant 5 / 5D9 VL variant 2
As to B11, in assay [1], the “Cell kill IC50, HekNectin4” value stood at 49.6 nM; the “Cell kill IC50, MDA-MB468” value is 17.5 nM; the “Cell kill IC50, SKBR3” value came to 10.6 nM. Further, the EC50 in assay [2] was 2.06 nM.
